Experimental data taken from article PMC4786772, “Manipulation of prenylation reactions by structure-based engineering of bacterial indolactam prenyltransferases” (Nature Communications, 2016).

Assays:
Assay in all cases: purified protein
Settings in all cases: 150 μM (−)-indolactam V, 42 °C, 5 min, Tris-HCl pH 7.0, 150 mM NaCl
[1] = test system: CC(C)=CCOP(=O)(O)OP(=O)(O)O
[2] = test system: CC(C)=CCC/C(C)=C/CC/C(C)=C/CO[P@@](=O)(O)OP(=O)(O)O
[3] = test system: CC(C)=CCC/C(C)=C/COP(=O)(O)OP(=O)(O)O

Substance	Km [1] [µM]	kcat [1] [s⁻¹]	kcat/Km [1] [M⁻¹ s⁻¹]	Km [2] [µM]	kcat [2] [s⁻¹]	kcat/Km [2] [M⁻¹ s⁻¹]	Km [3] [µM]	kcat [3] [s⁻¹]	kcat/Km [3] [M⁻¹ s⁻¹]
TleC (Streptomyces blastmyceticus; A173M/W97Y)	41.2 ± 5.6	0.0333 ± 0.00167	800						
MpnD (Marinactinospora thermotolerans)	4.8 ± 1.0	0.882 ± 0.0433	183000	95.5 ± 17.1	0.0867 ± 0.00833	900	26.0 ± 4.9	0.0433 ± 0.00333	1700
TleC (Streptomyces blastmyceticus; A173M)	24.6 ± 3.0	0.065 ± 0.00167	2600						
MpnD (Marinactinospora thermotolerans; M159A)	24.2 ± 4.2	0.505 ± 0.0333	20900	48.7 ± 14.6	0.167 ± 0.015	3400	9.1 ± 1.2	0.0717 ± 0.00333	7900
TleC (Streptomyces blastmyceticus; W97Y)	11.3 ± 1.6	0.402 ± 0.0133	35500				7.7 ± 1.0	0.168 ± 0.00667	21800
MpnD (Marinactinospora thermotolerans; Y80W)	15.3 ± 2.5	0.118 ± 0.005	7700				9.7 ± 1.1	0.09 ± 0.00167	9300
TleC (Streptomyces blastmyceticus; A173M/F170W/W97Y)	46.6 ± 8.2	0.0433 ± 0.00333	900						
TleC (Streptomyces blastmyceticus)	21.7 ± 4.3	0.025 ± 0.00167	1100				9.5 ± 3.3	0.25 ± 0.025	26400
